# Results as given in publication PMC11065315.
# What was measured:
# [1] = molecular target: phosphorylated eIFiso4F in complex with eIF4B (wheat) (UniProt Q9AUJ7); experiment: other fluorescence titration; 5°C; quenching of the intrinsic fluorescence of the eIFs by increasing VPg; 20 mM HEPES/KOH pH 7.6, 100 mM NaCl, 1 mM MgCl2, 1 mM DTT
# [2] = molecular target: phosphorylated eIFiso4F (wheat eIFiso4Ep and eIFiso4Gp, phosphorylated in vitro by casein kinase 2) (wheat); experiment: as above
# [3] = molecular target: phosphorylated eIFiso4F in complex with eIF4B and poly(A)-binding protein (wheat) (UniProt Q9AUJ7); experiment: as above
# [4] = molecular target: phosphorylated eIFiso4F in complex with poly(A)-binding protein (wheat); experiment: as above
# [5] = molecular target: phosphorylated eIFiso4F (wheat eIFiso4Ep and eIFiso4Gp, phosphorylated in vitro by casein kinase 2) (wheat)
# [6] = molecular target: eIFiso4F (unphosphorylated; wheat eIFiso4E and eIFiso4G) (wheat)
# [7] = molecular target: phosphorylated eIFiso4F in complex with eIF4B (wheat) (UniProt Q9AUJ7); experiment: other fluorescence titration; 25°C; quenching of the intrinsic fluorescence of the eIFs (excitation 280 nm, emission 334 nm) by increasing VPg; 100 nM eIFs or BSA (results; 500 nM in the methods); 20 mM HEPES/KOH pH 7.6, 100 mM NaCl, 1 mM MgCl2, 1 mM DTT; complexes pre-formed for 15 min
# [8] = molecular target: phosphorylated eIFiso4F (wheat eIFiso4Ep and eIFiso4Gp, phosphorylated in vitro by casein kinase 2) (wheat); experiment: as above
# [9] = molecular target: phosphorylated eIFiso4F in complex with eIF4B and poly(A)-binding protein (wheat) (UniProt Q9AUJ7); experiment: as above
# [10] = molecular target: phosphorylated eIFiso4F in complex with poly(A)-binding protein (wheat); experiment: as above
# [11] = molecular target: phosphorylated eIFiso4F in complex with eIF4B (wheat) (UniProt Q9AUJ7); experiment: other fluorescence titration; 15°C; quenching of the intrinsic fluorescence of the eIFs by increasing VPg; 20 mM HEPES/KOH pH 7.6, 100 mM NaCl, 1 mM MgCl2, 1 mM DTT
# [12] = molecular target: phosphorylated eIFiso4F (wheat eIFiso4Ep and eIFiso4Gp, phosphorylated in vitro by casein kinase 2) (wheat); experiment: as above
# [13] = molecular target: phosphorylated eIFiso4F in complex with eIF4B and poly(A)-binding protein (wheat) (UniProt Q9AUJ7); experiment: as above
# [14] = molecular target: phosphorylated eIFiso4F in complex with poly(A)-binding protein (wheat); experiment: as above
# [15] = molecular target: phosphorylated eIFiso4F in complex with eIF4B (wheat) (UniProt Q9AUJ7); experiment: other fluorescence titration; Van't Hoff plot (ln Keq against 1/T) of the fluorescence titrations at 5, 10, 15, 20 and 25°C
# [16] = molecular target: phosphorylated eIFiso4F (wheat eIFiso4Ep and eIFiso4Gp, phosphorylated in vitro by casein kinase 2) (wheat); experiment: as above
# [17] = molecular target: phosphorylated eIFiso4F in complex with eIF4B and poly(A)-binding protein (wheat) (UniProt Q9AUJ7); experiment: as above
# [18] = molecular target: phosphorylated eIFiso4F in complex with poly(A)-binding protein (wheat); experiment: as above
# [19] = molecular target: phosphorylated eIFiso4F in complex with eIF4B (wheat) (UniProt Q9AUJ7); experiment: other fluorescence titration; 20°C; quenching of the intrinsic fluorescence of the eIFs by increasing VPg; 20 mM HEPES/KOH pH 7.6, 100 mM NaCl, 1 mM MgCl2, 1 mM DTT
# [20] = molecular target: phosphorylated eIFiso4F (wheat eIFiso4Ep and eIFiso4Gp, phosphorylated in vitro by casein kinase 2) (wheat); experiment: as above
# [21] = molecular target: phosphorylated eIFiso4F in complex with eIF4B and poly(A)-binding protein (wheat) (UniProt Q9AUJ7); experiment: as above
# [22] = molecular target: phosphorylated eIFiso4F in complex with poly(A)-binding protein (wheat); experiment: as above
# [23] = molecular target: phosphorylated eIFiso4F in complex with eIF4B (wheat) (UniProt Q9AUJ7); experiment: other fluorescence titration; 10°C; quenching of the intrinsic fluorescence of the eIFs by increasing VPg; 20 mM HEPES/KOH pH 7.6, 100 mM NaCl, 1 mM MgCl2, 1 mM DTT
# [24] = molecular target: phosphorylated eIFiso4F (wheat eIFiso4Ep and eIFiso4Gp, phosphorylated in vitro by casein kinase 2) (wheat); experiment: as above
# [25] = molecular target: phosphorylated eIFiso4F in complex with eIF4B and poly(A)-binding protein (wheat) (UniProt Q9AUJ7); experiment: as above
# [26] = molecular target: phosphorylated eIFiso4F in complex with poly(A)-binding protein (wheat); experiment: as above
substance,measurement,setting,value
viral protein genome-linked (VPg) of turnip mosaic virus (natural protein),Kd,[1],15 nM
same,Kd,[2],17.1 nM
same,Kd,[3],8.6 nM
same,Kd,[4],10.3 nM
same,"luciferase translation of capped TEV-luc-A50 mRNA in depleted WGE supplemented with eIFiso4Fp, with against without 20 nM VPg",[5],2.5 fold
same,"luciferase translation of uncapped TEV-luc-A50 mRNA in depleted WGE supplemented with eIFiso4Fp, with against without 20 nM VPg",[5],5 fold
same,"luciferase translation of uncapped TEV-luc-A50 mRNA in depleted WGE with eIFiso4Fp and VPg, with against without added PABP",[5],2 fold
same,"luciferase translation of uncapped TEV mRNA in eIF4F/eIFiso4F/eIF4B/PABP-depleted WGE with 20 nM VPg, escalating PABP up to 200 nM against no PABP",[6],3 fold
same,Kd,[7],34.1 nM
same,Kd,[8],41 nM
same,Kd,[9],24 nM
same,Kd,[10],32 nM
same,Kd,[11],24 nM
same,Kd,[12],26.2 nM
same,Kd,[13],16.1 nM
same,Kd,[14],19.1 nM
same,dH,[15],-8.46 kcal/mol
same,dH,[16],-7.98 kcal/mol
same,dH,[17],-12.8 kcal/mol
same,dH,[18],-11.7 kcal/mol
same,Kd,[19],29.3 nM
same,Kd,[20],31 nM
same,Kd,[21],19.5 nM
same,Kd,[22],26.5 nM
same,Kd,[23],19.1 nM
same,Kd,[24],21 nM
same,Kd,[25],12 nM
same,Kd,[26],14 nM
